Data taken from IntAct's records for PubMed 23954414.

B1: Beclin-2 (Homo sapiens), A8MW95 (parent)
chain: MSSIRFLCQRCHQALKLSGSSESRSLPAAPAPTSGQAEPGDTREPGVTTREVTDAEEQQDGASSRSPPGDGSVSKGHANIFTLLGELGAMHMLSSIQKAAGDIFDIVSGQAVVDHPLCEECTDSLLEQLDIQLALTEADSQNYQRCLETGELATSEDEAAALRAELRDLELEEARLVQELEDVDRNNARAAADLQAAQAEAAELDQQERQHYRDYSALKRQQLELLDQLGNVENQLQYARVQRDRLKEINCFTATFEIWVEGPLGVINNFRLGRLPTVRVGWNEINTAWGQAALLLLTLANTIGLQFQRYRLIPCGNHSYLKSLTDDRTELPLFCYGGQDVFLNNKYDRAMVAFLDCMQQFKEEAEKGELGLSLPYGIQVETGLMEDVGGRGECYSIRTHLNTQELWTKALKFMLINFKWSLIWVASRYQK
partner: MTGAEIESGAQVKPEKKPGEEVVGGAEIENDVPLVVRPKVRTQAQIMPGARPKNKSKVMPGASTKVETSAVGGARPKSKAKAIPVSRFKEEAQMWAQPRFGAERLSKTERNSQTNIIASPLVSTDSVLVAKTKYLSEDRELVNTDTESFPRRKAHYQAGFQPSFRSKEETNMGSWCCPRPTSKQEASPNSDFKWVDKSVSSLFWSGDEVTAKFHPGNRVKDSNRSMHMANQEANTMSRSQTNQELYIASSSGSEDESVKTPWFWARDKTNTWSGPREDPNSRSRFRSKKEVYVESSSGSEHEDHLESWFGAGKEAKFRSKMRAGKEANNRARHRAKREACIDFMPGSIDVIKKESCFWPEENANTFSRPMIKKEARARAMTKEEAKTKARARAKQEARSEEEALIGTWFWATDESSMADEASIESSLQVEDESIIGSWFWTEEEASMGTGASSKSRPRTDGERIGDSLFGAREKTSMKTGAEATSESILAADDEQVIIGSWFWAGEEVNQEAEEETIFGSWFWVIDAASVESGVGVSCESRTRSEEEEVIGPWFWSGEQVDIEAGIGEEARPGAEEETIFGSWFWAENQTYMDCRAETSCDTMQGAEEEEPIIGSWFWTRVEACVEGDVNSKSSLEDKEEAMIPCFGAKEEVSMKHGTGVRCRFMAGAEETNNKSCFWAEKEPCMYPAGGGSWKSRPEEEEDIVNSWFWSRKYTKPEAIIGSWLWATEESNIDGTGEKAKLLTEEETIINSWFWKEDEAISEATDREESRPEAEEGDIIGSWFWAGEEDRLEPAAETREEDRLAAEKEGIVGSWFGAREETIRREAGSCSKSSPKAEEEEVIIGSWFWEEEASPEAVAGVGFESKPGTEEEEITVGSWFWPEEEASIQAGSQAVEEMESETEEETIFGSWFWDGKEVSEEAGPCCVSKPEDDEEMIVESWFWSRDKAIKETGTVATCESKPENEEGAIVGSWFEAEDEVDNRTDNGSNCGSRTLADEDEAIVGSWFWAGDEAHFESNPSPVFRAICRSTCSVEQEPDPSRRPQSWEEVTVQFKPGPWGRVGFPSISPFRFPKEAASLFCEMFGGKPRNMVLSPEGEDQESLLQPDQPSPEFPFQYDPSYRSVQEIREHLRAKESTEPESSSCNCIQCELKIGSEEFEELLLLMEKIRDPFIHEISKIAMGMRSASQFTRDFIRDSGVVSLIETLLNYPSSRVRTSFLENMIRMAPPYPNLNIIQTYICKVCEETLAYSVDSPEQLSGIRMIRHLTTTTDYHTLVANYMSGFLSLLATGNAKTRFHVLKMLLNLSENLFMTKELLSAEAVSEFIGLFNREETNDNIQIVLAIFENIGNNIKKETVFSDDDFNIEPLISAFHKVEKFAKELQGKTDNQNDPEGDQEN

Variants of: B1
Settings: with gasp1_human GPRASP1, Q5JY77

| effect of a mutation on the interaction | Variant |
| --- | --- |
| disrupting interaction strength | I80S |
